Ends that are not written are not given here.
B1: ss-IFNβ-6his: Rat IFNβ with 6-histidine sequence, lacking the EK linker (protein, UniProt P70499 22-184, looked up)
Interferon beta: IDYKQLQFRQSTSIRTCQKLLRQLNGRLNLSYRTDFKIPMEVMHPSQMEKSYTAFAIQVMLQNVFLVFRSNFSSTGWNETIVESLLDELHQQTELLEIILKEKQEERLTWVTSTTTLGLKSYYWRVQRYLKDKKYNSYAWMVVRAEVFRNFSIILRLNRNFQN
modifications: C-terminal 6His tag
B2: ss-IFNβ: Rat IFNβ without non-native C-terminal or N-terminal additions (protein, UniProt P70499 22-184, looked up)
Interferon beta: B1 Interferon beta

Key:
Solubility of peptide = type: physicochemical; settings: routinely reconstituted in saline
Procedure: A colony of Lewis rats was maintained at East Carolina University School of Medicine. Animal care and use was approved by the Institutional Animal Care and Use Committee and was performed in accordance with approved institutional guidelines. The synthetic peptide gp69-88 ([…]) (SEQ ID NO. 5) was obtained from Quality Controlled Biologicals, Inc. (Hopkinton, Mass.). The purity of gp69-88 was greater than 98%. […] The OX6 anti-I-A (RT1B) IgG1, the R73 anti-TCRβ IgG1, the OX81 anti-IL-4 IgG1, and the OX18 anti-MHC class I glycoproteins (MHC-I) (RT1A) IgG1 were concentrated by ultrafiltration of B cell hybridoma supernatants through Millipore spiral wound membranes (100 kd exclusion). Hybridomas were obtained from the European Collection of Cell Cultures. The B5 IgM anti-MHC-I (RT1A^a,b,l) mAb was purchased from BD Biosciences. FITC-conjugated goat anti-mouse IgG1 was purchased from Southern Biotechnology (Birmingham, Ala.).

BN-GP T cells = experiment: IFNβ anti-proliferative activity in IL-2 stimulated cultures of BN-GP T cells; type: cell-based, rat; settings: expression supernatants, transient transfection of HEK293 cells
Procedure: FIG. 1. The IFNβ-NAg his-tagged fusion protein was biologically active and was purified on nickel resins. (A) To assess whether IFNβ-NAg induced class I MHC expression, thymocytes (5×10^6/ml in complete RPMI) were cultured with or without IFNβ-NAg for 2 days and then were stained with B5 (anti-MHC-I), OX18 (anti-MHC-I), R73 (anti-TCRβ), or OX81 (anti-IL4; isotype control) and were analyzed by flow cytometry. (B) To assess IFNβ-mediated anti-proliferative activity, supernatants from two independently derived IFNβ-NAg expression systems as well as supernatants from several control expression systems were added at designated titrations (x-axis) to IL-2 stimulated cultures of BN-GP T cells. (C) To assess the specificity of anti-proliferative activity, baculovirus supernatants containing IFNβ-NAg were added at designated titrations to cultures of rat (R1T, BN-GP, RsL.11T, RsL.11, or Conal.8D9) or mouse (CTLL) T cells. Proliferative assays (B & C) were pulsed with [^3H]thymidine on the second day of a 3-day culture. (D) Shown is a representative SDS-PAGE analysis of purified IFNβ-NAg.
FIG. 2. Structure-function analysis of the cytokine and NAg domains of IFNβ fusion proteins. (A) Expression supernatants containing designated IFNβ fusion proteins (see Table 2) were added to cultures of BN-GP T cells at designated titrations (x-axis). (B) The IFNβ-EK-NAg-6his or IFNβ-EK-6his fusion genes were inserted into the pCEP4 expression vector (Invitrogen). Inserts were verified by DNA sequencing, and the genes were expressed by transient transfection of HEK293 cells. Independently derived expression systems of IFNβ-EK-NAg-6his or IFNβ-EK-6his (3 each) were compared in the BN-GP T cell anti-proliferative assay. (C) Independently purified preparations (2 each) of each IFN-β fusion protein (IFNβ-NAg from HEK293 cells, IFNβ-NAg from baculovirus, and IFN-β from HEK293 cells) were added at designated concentrations to assess anti-proliferative activity. Two independently purified preparations of the same fusion protein were tested to verify the reliability of activity for each type of protein. The x-axis was based on the exponent of the molar concentration. For example, a concentration of 100 nM was represented as Log [10^−7]=Log10) (10^−7M)=−7 and was plotted by the exponent of −7. For these experiments (A-C), BN-GP T cells were cultured in IL-2. (D) The MBP-specific RsL.11 T cell clone and irradiated splenic APC were cultured with designated concentrations of purified IFNβ-NAg or GPMBP in the presence or absence of the OX6 anti-MHC-II mAb. (E) Five preparations of purified IFNβ-NAg and six preparations of purified IFN-β were tested for antigenic activity in cultures of RsL.11 T cells and irradiated splenic APC.
The RsL.11 MBP-specific clone was a stable, IL-2 dependent line derived from Lewis rats sensitized with rat MBP in CFA (Mannie, M. D., and M. S. Norris. 2001. MHC class-II-restricted antigen presentation by myelin basic protein-specific CD4+ T cells causes prolonged desensitization and outgrowth of CD4-responders. Cell Immunol 212:51-62). The RsL.11T clone was a transformed variant of the RsL.11 clone. […]

Molecule | solubility (Solubility of peptide) | Biological activity of IFNβ in expression supernatants (BN-GP T cells)
YGSLPQKSQRSQDENPVVHF [NAg] | freely soluble | –
B1 | – | Weak activity
B2 | – | Potent activity

Source: patent publication US10363306B2, “Cytokines and neuroantigens for treatment of immune disorders” (East Carolina University, priority 2009, dated 2019)
